B1: Tensin-3 (Homo sapiens), Q68CZ2 (parent)
chain: MEEGHGLDLTYITERIIAVSFPAGCSEESYLHNLQEVTRMLKSKHGDNYLVLNLSEKRYDLTKLNPKIMDVGWPELHAPPLDKMCTICKAQESWLNSNLQHVVVIHCRGGKGRIGVVISSYMHFTNVSASADQALDRFAMKKFYDDKVSALMQPSQKRYVQFLSGLLSGSVKMNASPLFLHFVILHGTPNFDTGGVCRPFLKLYQAMQPVYTSGIYNVGPENPSRICIVIEPAQLLKGDVMVKCYHKKYRSATRDVIFRLQFHTGAVQGYGLVFGKEDLDNASKDDRFPDYGKVELVFSATPEKIQGSEHLYNDHGVIVDYNTTDPLIRWDSYENLSADGEVLHTQGPVDGSLYAKVRKKSSSDPGIPGGPQAIPATNSPDHSDHTLSVSSDSGHSTASARTDKTEERLAPGTRRGLSAQEKAELDQLLSGFGLEDPGSSLKEMTDARSKYSGTRHVVPAQVHVNGDAALKDRETDILDDEMPHHDLHSVDSLGTLSSSEGPQSAHLGPFTCHKSSQNSLLSDGFGSNVGEDPQGTLVPDLGLGMDGPYERERTFGSREPKQPQPLLRKPSVSAQMQAYGQSSYSTQTWVRQQQMVVAHQYSFAPDGEARLVSRCPADNPGLVQAQPRVPLTPTRGTSSRVAVQRGVGSGPHPPDTQQPSPSKAFKPRFPGDQVVNGAGPELSTGPSPGSPTLDIDQSIEQLNRLILELDPTFEPIPTHMNALGSQANGSVSPDSVGGGLRASSRLPDTGEGPSRATGRQGSSAEQPLGGRLRKLSLGQYDNDAGGQLPFSKCAWGKAGVDYAPNLPPFPSPADVKETMTPGYPQDLDIIDGRILSSKESMCSTPAFPVSPETPYVKTALRHPPFSPPEPPLSSPASQHKGGREPRSCPETLTHAVGMSESPIGPKSTMLRADASSTPSFQQAFASSCTISSNGPGQRRESSSSAERQWVESSPKPMVSLLGSGRPTGSPLSAEFSGTRKDSPVLSCFPPSELQAPFHSHELSLAEPPDSLAPPSSQAFLGFGTAPVGSGLPPEEDLGALLANSHGASPTPSIPLTATGAADNGFLSHNFLTVAPGHSSHHSPGLQGQGVTLPGQPPLPEKKRASEGDRSLGSVSPSSSGFSSPHSGSTISIPFPNVLPDFSKASEAASPLPDSPGDKLVIVKFVQDTSKFWYKADISREQAIAMLKDKEPGSFIVRDSHSFRGAYGLAMKVATPPPSVLQLNKKAGDLANELVRHFLIECTPKGVRLKGCSNEPYFGSLTALVCQHSITPLALPCKLLIPERDPLEEIAESSPQTAANSAAELLKQGAACNVWYLNSVEMESLTGHQAIQKALSITLVQEPPPVSTVVHFKVSAQGITLTDNQRKLFFRRHYPVNSVIFCALDPQDRKWIKDGPSSKVFGFVARKQGSATDNVCHLFAEHDPEQPASAIVNFVSKVMIGSPKKV
partner: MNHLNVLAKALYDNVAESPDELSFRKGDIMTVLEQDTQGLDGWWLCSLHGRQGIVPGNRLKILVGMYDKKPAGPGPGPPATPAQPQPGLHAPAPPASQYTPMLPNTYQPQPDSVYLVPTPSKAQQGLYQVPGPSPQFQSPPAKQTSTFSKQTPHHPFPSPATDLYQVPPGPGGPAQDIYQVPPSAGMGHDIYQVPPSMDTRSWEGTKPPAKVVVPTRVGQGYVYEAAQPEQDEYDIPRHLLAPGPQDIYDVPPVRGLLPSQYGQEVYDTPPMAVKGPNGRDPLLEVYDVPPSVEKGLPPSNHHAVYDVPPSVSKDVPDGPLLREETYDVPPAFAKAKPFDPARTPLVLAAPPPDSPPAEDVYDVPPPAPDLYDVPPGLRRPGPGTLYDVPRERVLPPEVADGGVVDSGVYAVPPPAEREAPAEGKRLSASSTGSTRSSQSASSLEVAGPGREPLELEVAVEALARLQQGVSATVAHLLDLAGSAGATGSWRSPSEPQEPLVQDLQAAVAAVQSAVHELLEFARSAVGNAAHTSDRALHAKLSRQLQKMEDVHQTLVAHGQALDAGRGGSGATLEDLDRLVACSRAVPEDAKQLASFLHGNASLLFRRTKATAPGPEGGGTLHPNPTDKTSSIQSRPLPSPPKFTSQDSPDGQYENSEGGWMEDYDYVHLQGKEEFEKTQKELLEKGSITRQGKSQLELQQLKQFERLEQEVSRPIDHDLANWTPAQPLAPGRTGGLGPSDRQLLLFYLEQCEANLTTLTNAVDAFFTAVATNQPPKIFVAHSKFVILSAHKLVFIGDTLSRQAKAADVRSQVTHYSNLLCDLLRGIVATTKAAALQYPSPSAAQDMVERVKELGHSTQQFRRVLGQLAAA

Variants of: B1
Details: with bcar1_human BCAR1, P56945

effect of a mutation on the interaction | Variant
decreasing interaction | Y1173F;Y1206F
